Laboratory results reported in PMC11880807.

T1: EXOG-ΔC68 (human, UniProt Q9Y2C4 59-300)
T1 sequence: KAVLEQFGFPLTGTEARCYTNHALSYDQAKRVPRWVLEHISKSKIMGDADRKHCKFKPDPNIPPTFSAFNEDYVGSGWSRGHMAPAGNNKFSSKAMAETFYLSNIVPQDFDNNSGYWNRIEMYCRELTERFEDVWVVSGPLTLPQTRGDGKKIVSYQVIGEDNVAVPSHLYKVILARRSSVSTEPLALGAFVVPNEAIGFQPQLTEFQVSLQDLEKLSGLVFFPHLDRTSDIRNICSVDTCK

T2: EXOG (EXOG-ΔN58) (human, UniProt Q9Y2C4 59-368)
T2 sequence: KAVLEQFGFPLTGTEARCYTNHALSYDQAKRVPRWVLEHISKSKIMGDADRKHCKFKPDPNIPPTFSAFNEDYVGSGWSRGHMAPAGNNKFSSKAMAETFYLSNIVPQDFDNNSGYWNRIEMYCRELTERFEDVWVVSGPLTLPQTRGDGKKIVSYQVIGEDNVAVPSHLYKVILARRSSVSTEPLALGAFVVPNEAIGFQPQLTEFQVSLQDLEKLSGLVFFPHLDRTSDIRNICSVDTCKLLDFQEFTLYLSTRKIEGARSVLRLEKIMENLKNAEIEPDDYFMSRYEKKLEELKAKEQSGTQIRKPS


Assays:
Experiment in all cases: MST
EXOG-ΔC68 [1] = target: T1, EXOG-ΔC68
EXOG (EXOG-ΔN58) = target: T2, EXOG (EXOG-ΔN58)
EXOG-ΔC68 [2] = target: T1, EXOG-ΔC68; remark: listed apart in the source

Binder | Kd (EXOG-ΔC68 [1]) [nM] | Kd (EXOG (EXOG-ΔN58)) [nM] | binding result (EXOG-ΔC68 [2])
AGUUCGUUAUCGUCGC (ssRNA) [ssRNA 16-mer O11] | 155 ± 31.9 | – | –
AGTTCGTTATCGTCGC (ssDNA) [ssDNA 16-mer O10] | – | 25.1 ± 4.5 | no binding
